Biological target: 7S subunit of the lemon shark 19S immunoglobulin (lemon shark, Negaprion brevirostris)
Assay: AUC

stoichiometry N: 5
Substance: 7S subunit of the lemon shark 19S immunoglobulin (complex)

From article PMC2138209
